# Data reported in patent US20260176378A1 (DYAX, published 2026).
# Biological target: T1, human plasma kallikrein (human, UniProt P03952 20-390; P03952 391-638)
# T1 construct: two disulfide-linked chains; NP_000883.2; also called pKal; hpKal
# Test: ELISA, biotinylated pKal signal over streptavidin background
# T1 sequence (P03952 20-390 limits assumed, chain 1 of 2): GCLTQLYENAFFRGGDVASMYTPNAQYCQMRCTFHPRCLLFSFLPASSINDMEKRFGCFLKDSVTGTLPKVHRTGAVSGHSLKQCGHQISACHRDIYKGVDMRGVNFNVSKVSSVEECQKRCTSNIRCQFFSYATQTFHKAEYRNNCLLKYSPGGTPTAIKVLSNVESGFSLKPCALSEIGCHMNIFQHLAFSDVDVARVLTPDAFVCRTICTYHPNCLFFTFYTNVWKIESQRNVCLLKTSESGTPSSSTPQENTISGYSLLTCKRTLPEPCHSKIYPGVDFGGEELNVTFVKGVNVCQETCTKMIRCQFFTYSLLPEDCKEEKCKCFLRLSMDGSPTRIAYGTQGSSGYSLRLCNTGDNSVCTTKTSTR
# T1 sequence (P03952 391-638 limits assumed, chain 2 of 2): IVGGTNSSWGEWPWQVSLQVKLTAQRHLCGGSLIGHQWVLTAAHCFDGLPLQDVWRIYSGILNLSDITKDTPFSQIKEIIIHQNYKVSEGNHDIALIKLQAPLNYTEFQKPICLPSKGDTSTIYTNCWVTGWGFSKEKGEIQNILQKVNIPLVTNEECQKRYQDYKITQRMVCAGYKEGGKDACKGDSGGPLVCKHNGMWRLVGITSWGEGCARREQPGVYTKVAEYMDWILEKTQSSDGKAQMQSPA
row,ELISA (T/B),Binder
1,16.4,"M29-G10 (Fab, V domains shown) VH: EVQLLESGGGLVQPGGSLRLSCAASGFTFSFYKMIWVRQAPGKGLEWVSSISSSGGSTQYADSVKGRFTISRDNSKNTLYLQMNSLRAEDTAVYYCARDRVDLGYLDYWGQGTLVTVSS VL: DIQMTQSPSSLSSSVGDSATITCRASQSISIYLNWYQQKPGKAPKILIYGASQLESGVPSRFSGSGSGTDFTLTVSGLQPEDFATYWCQQSYNVPYTFGQGTKLEIK"
2,33,"M28-F07 (Fab, V domains shown) VH: EVQLLESGGGLVQPGGSLRLSCAASGFTFSDYTMYWVRQAPGKGLEWVSSIVPSGGHTLYADSVKGRFTISRDNSKNTLYLQMNSLRAEDTAVYYCAKDHLSSWYGGFFDYWGQGTLVTVSS VL: DIQMTQSPSSVSASVGDRVTITCRASQGISSWLAWYQQKPGKAPKLLIYATSGLQSGVPSRFSGSGSGTDFTLTISSLQPEDFATYYCQQAKSFPLTFGGGTRVEIK"
3,41.6,"M28-D12 (Fab, V domains shown) VH: EVQLLESGGGLVQPGGSLRLSCAASGFTFSWYTMHWVRQAPGKGLEWVSVIYPSGGPTSYADSVKGRFTISRDNSKNTLYLQMNSLRAEDTATYYCARDGSGSYLGFDYWGQGTLVTVSS VL: DIQMTQSPSSLSASVGDRVTITCRASQSIATYLNWYQQKPGRAPKLLIYAASSLQSGVPSRFVGGGSGSGTHFTLTISSLQPEDFATYYCQQSYSTRETFGQGTKVEIK"
4,2,"M29-E02 (Fab, V domains shown) VH: EVQLLESGGGLVQPGGSLRLSCAASGFTFSRYPMMWVRQAPGKGLEWVSVIYPSGGDTFYADSVKGRFTISRDNSKNTLYLQMNSLRAEDTAVYYCASGDDYLWEAAVYWGQGTLVTVSS VL: QSVLTQPPSVSEAPRQRVTISCSGSSSNIGNNAVSWYQQLPGKAPKLLIYYDDLLPSGVSDRFSGSKSGTSASLAISGLRSEDEADYYCAAWDDSLNGFVFGTGTKVTVL"
5,41,"M28-E01 (Fab, V domains shown) VH: EVQLLESGGGLVQPGGSLRLSCAASGFTFSSYPMGWVRQAPGKGLEWVSRISSSGGMTIYADSVKGRFTISRDNSKNTLYLQMNSLRAEDTAVYYCARDDWNVGMDVWGQGTTVTVSS VL: DIQMTQSPSSLSASVGDRVTITCRASQSISSYLNWYQQKPGKAPKLLIYAASSLQSGVPSKFSGSGSGTDYTLTISSLQPEDFATYYCQQTYTTPWTFGQGTKVEIK"
6,16.1,"M77-C07 (Fab, V domains shown) VH: EVQLLESGGGLVQPGGSLRLSCAASGFTFSLYIMGWVRQAPGKGLEWVSGIYPSGGFTMYADSVKGRFTISRDNSKNTLYLQMNSLRAEDTAVYYCARESSGVAAPDYWGQGTLVTVSS VL: DIQMTQSPSTLSASVGDRVTITCRASQNISSYLNWYQQKPGKAPKLLIYAASSLQSGVPSRFSGSGSGTDFTLTISSLQPEDFATYSCQQSYSTPRTFGQGTKVEIK"
7,3.7,"M28-D02 (Fab, V domains shown) VH: EVQLLESGGGLVQPGGSLRLSCAASGFTFSWYPMQWVRQAPGKGLEWVSYIYPSGGGTDYADSVKGRFTISRDNSKNTLYLQMNSLRAEDTATYYCATSSGWLGDAFDIWGQGTMVTVSS VL: DIQMTQSPSSLSASEGDMVTITCRTSRRIGTYLNWYQQKPGKAPKLLIYGASSLQSGVPSRFSGSGSGTDFTLTVSSLQPEDVGTYYCQQSFSSPWTFGPGTKVEIK"
8,13.4,"M76-H02 (Fab, V domains shown) VH: EVQLLESGGGLVQPGGSLRLSCAASGFTFSMYWMQWVRQAPGKGLEWVSYIYPSGGPTKYADSVKGRFTISRDNSKNTLYLQMNSLRAEDTAVYYCARPSGSYGDAFDIWGQGTMVTVSS VL: DIQMTQSPSSLSASEGDRVTITCRASQDISVYLNWYQMKSGKAPKLLIYGGASLQSGVPARFSGSGYGTDFTLTITDLRPEDFATYYCQQSYSLPFTFGGGTKVEIK"
9,5.2,"M29-C07 (Fab, V domains shown) VH: EVQLLESGGGLVQPGGSLRLSCAASGFTFSGYDMMWVRQAPGKGLEWVSVISSSGGNTAYADSVKGRFTISRDNSKNTLYLQMNSLRAEDTAVYYCARESSGLYYFDYWGQGTLVTVSS VL: not shown"
10,29.3,"M28-E11 (Fab, V domains shown) VH: EVQLLESGGGLVQPGGSLRLSCAASGFTFSLYDMTWVRQAPGKGLEWVSGISSSGGVTIYADSVKGRFTISRDNSKNTLYLQMNSLRAEDTAVYYCARTYYYDSSGYADAFDIWGQGTMVTVSS VL: DIQMTQSPSSVSASVGDRVTINCRASQDISNWLAWYQQKPGKAPNLLIYAASSLQTGAPSRFSGSGSGTDFTLTISSLQPEDFGTYVCQQSYSLPWTFGLGTKVEVR"
11,23.4,"M6-A08 (Fab, V domains shown) VH: EVQLLESGGGLVQPGGSLRLSCAASGFTFSPYPMQWVRQAPGKGLEWVSSISSSGGMTEYADSVKGRFTISRDNSKNTLYLQMNSLRAEDTAVYYCARDDYGGKGGAFDIWGQGTMVTVSS VL: DIQMTQSPSSLSASVGDRVTITCRASQRISFYLNWFQQKPGKAPNLLIYGASSLQSGVPSRFSGSGSGTDFTLTISSLQPKDFGTYYCQQTFSTPNTFGQGTKLEIK"
12,11.8,"M76-G06 (Fab, V domains shown) VH: EVQLLESGGGLVQPGGSLRLSCAASGFTFSGYIMHWVRQAPGKGLEWVSWIYPSGGWTEYADSVKGRFTISRDNSKNTLYLQMNSLRAEDTAVYYCARDAPGVGAIDYWGQGTLVTVSS VL: DIQMTQSPSSLSASVRDRVTITCRASQSISTYLNWYQQKPGEAPKLLVFAASSLQSGVPSRFSGSGSGTDFTLSISSLQPEDFATYYCQQSYSTPHTFGQGAKVEIK"
13,19,"M28-A01 (Fab, V domains shown) VH: EVQLLESGGGLVQPGGSLRLSCAASGFTFSWYAMHWVRQAPGKGLEWVSGIYSSGGYTKYADSVKGRFTISRDNSKNTLYLQMNSLRAEDTAVYYCARDLSNGDDVFDIWGQGTMVTVSS VL: not shown"
14,40.4,"M29-G08 (Fab, V domains shown) VH: EVQLLESGGGLVQPGGSLRLSCAASGFTFSYYHMWWVRQAPGKGLEWVSGISPSGGFTFYADSVKGRFTISRDNSKNTLYLQMNSLRAEDTAVYYCARDYYYDSSGYSPLGYWGQGTLVTVSS VL: DIQMTQSPATLSASPGETVTLSCRASQNIGNDVAWYRQRPGQAPRLLIHHASTRAYGIPARLRGSGSATEFTLTITSLEPEDFAIYYCQQFYDWPAHTFALGTRLEIKR"
15,1.5,"M28-F01 (Fab, V domains shown) VH: EVQLLESGGGLVQPGGSLRLSCAASGFTFSVYLMHWVRQAPGKGLEWVSGISPSGGYTQYADSVKGRFTISRDNSKNTLYLQMNSLRAEDTAVYYCARPGGLDAFDIWGQGTMVTVSS VL: DIQMTQSPSSLSASVGDRVTITCRASQSINTYLNWYQQKPGKAPKVLIHAASTLESGVPSRFSGSGSGTDFTLTISSLQPEDFATYYCQQSYSTPPTFGQGTKVEIK"
16,6.4,"M76-F02 (Fab, V domains shown) VH: EVQLLESGGGLVQPGGSLRLSCAASGFTFSLYDMNWVRQAPGKGLEWVSGISPSGGQTMYADSVKGRFTISRDNSKNTLYLQMNSLRAEDTAVYYCARQPMISAFDIWGQGTMVTVSS VL: DIQMTQSPSSLSASVGDRVTITCRASQTIDNYLHWYQQKPGKAPKVLIHDASSLQSGVPPRFSGSGSGTDFTLTISSLQPEDFATYYCQQSYDTPQYTFGQGTKLEIK"
17,16,"M6-D08 (Fab, V domains shown) VH: EVQLLESGGGLVQPGGSLRLSCAASGFTFSRYHMVWVRQAPGKGLEWVSSISPSGGWTNYADSVKGRFTISRDNSKNTLYLQMNSLRAEDTAMYYCAREMATIAGQFDPWGQGTLVTVSS VL: DIQMTQSPSSLSASVGDRVTITCRASQSISSYLNWYQQKPGKAPKLLIYGASSLQSGVPSRFSGSGSGTDFTLTISSLQPEDSATYYCQQSYTRWTFGQGTKVEIK"
18,10.3,"M76-G02 (Fab, V domains shown) VH: EVQLLESGGGLVQPGGSLRLSCAASGFTFSLYAMWWVRQAPGKGLEWVSYISSSGGFTSYADSVKGRFTISRDNSKNTLYLQMNSLRAEDTAVYYCARYRVGVAATDYWGQGTLVTVSS VL: not shown"
19,23.6,"M29-D10 (Fab, V domains shown) VH: EVQLLESGGGLVQPGGSLRLSCAASGFTFSWYPMYWVRQAPGKGLEWVSSIGSSGGPTPYADSVKGRFTISRDNSKNTLYLQMNSLRAEDTAVYYCARWADYGGSLDYWGQGTLVTVSS VL: DIQMTQSPSSLSASVGDTVSITCRASQSITIYLNWYQHKPGKAPNLLIYGASNLHSGVPSRFSGSGSGTDFTLTISSLQPEDFATYYCQQSYDTPLTFGGGTKVEIK"
20,7.6,"M77-H04 (Fab, V domains shown) VH: EVQLLESGGGLVQPGGSLRLSCAASGFTFSYYTMIWVRQAPGKGLEWVSGIRSSGGGTRYADSVKGRFTISRDNSKNTLYLQMNSLRAEDTAVYYCAKDGSRYSYGSIYYYYGMDAWGQGTTVTVSS VL: not shown"
21,2.2,"M28-C03 (Fab, V domains shown) VH: EVQLLESGGGLVQPGGSLRLSCAASGFTFSYYQMGWVRQAPGKGLEWVSSIYPSGGMTDYADSVKGRFTISRDNSKNTLYLQMNSLRAEDTAVYYCTRGSPWGDDAFDIWGQGTMVTVSS VL: DIQMTQSPSSLSASVGDRVTITCRASQSINFYLNWYQQKPGKAPKLLIYVASSLESGVPSRFSGSASGTEFTLTISSLQPEDFATYYCLQSYSAPYTFGQGTKVEIT"
22,8.6,"M74-A07 (Fab, V domains shown) VH: EVQLLESGGGLVQPGGSLRLSCAASGFTFSQYLMMWVRQAPGKGLEWVSSIYPSGGYTSYADSVKGRFTISRDNSKNTLYLQMNSLRAEDTAVYYCARVSTAVADNDYWGQGTLVTVSS VL: DIQMTQSPSSLSASVRDRVTITCRTSQNINTYLNWYYQAPGRAPKLLIFGVSSLHRGVSSRFSGSGDGTEFTLTISSLQPEDIGTYFCQQSYSSPWTFGQGTKVEIK"
23,15.5,"M6-D03 (Fab, V domains shown) VH: EVQLLESGGGLVQPGGSLRLSCAASGFTFSKYFMGWVRQAPGKGLEWVSVIGSSGGWTSYADSVKGRFTISRDNSKNTLYLQMNSLRAEDTAVYYCARVSTAVADNDYWGQGTLVTVSS VL: not shown"
24,11.7,"M6-A06 (Fab, V domains shown) VH: EVQLLESGGGLVQPGGSLRLSCAASGFTFSLYQMTWVRQAPGKGLEWVSGIWPSGGFTDYADSVKGRFTISRDNSKNTLYLQMNSLRAEDTAVYYCARVSTAVADNDYWGQGTLVTVSS VL: DIQMTQSPSSLSASVGDSVTISCRASQSISMYLNWYQHKPGKAPKLLIYGTSSLQSGVPSRFSGSGPGGTDFTLTISSLQPEDFATYYCQQSYSAPWTFGQGTKVEIK"
